The nature of data set [1]: IAsys optical biosensor, affinity of avidin and avidin mutants towards 2-iminobiotin. Type of data set: binding. On the procedure: (§1) Reversibility of biotin binding was measured for avidin and the mutants with an IAsys optical biosensor (Laitinen, O. H. et al., FEBS Lett 461 (1999), 52-8). Protein samples were allowed to bind to a biotin-aminosilane cuvette in PBS containing 1 M NaCl. After the equilibrium was reached, biotin-containing buffer was added and the dissociation of the proteins was monitored. The affinities of the proteins towards 2-iminobiotin were determined with an IAsys optical biosensor (Marttila, A. T. et al. FEBS Lett 441 (1998), 313-7). Biotin-binding activity of the mutants Avd-ci and Avd-ccci after heat treatment was studied with a microtiter plate assay. Protein samples, 5 μg/ml concentration in PBS, were heated for various time periods at 99.9° C. and then chilled on ice. The samples were transferred to a Nunc Maxisorp-plate and incubated at 37° C. for 2 h. The wells were washed three times with PBS-Tween (0.05% v/v). After that the wells were blocked with PBS containing 1% BSA at 37° C. for 30 minutes and washed again with PBS-Tween. Next, biotinylated alkaline phosphatase (Sigma) in PBS, 1% BSA was added and incubated at 37° C. for one hour. Once again, the wells were washed with PBS-Tween and the PNPP substrate in DEA buffer (1 mg/ml) was applied to the wells. The absorbances at 405 nm were measured after incubation for 45 minutes.

For data set [2], the system named is biotinylated alkaline phosphatase. Nature of the data set: Microtiter plate assay, biotin-binding activity after heat treatment at 99.9° C. Type of data set: physicochemical. Particulars: 99.9° C. for various time periods. On the procedure:
as §1, with “After that the wells were blocked with PBS containing 1% BSA at 37° C. for 30 minutes and washed again with PBS-Tween. Next, biotinylated alkaline phosphatase (Sigma) in PBS, 1% BSA was added and incubated at 37° C. for one hour. Once again, the wells were washed with PBS-Tween and the PNPP substrate in DEA buffer (1 mg/ml) was applied to the wells.” left out
Biotin-binding activity of the proteins after heat treatment was studied with a microtiter plate assay (Nordlund, H. R., Laitinen, O. H., Uotila, S. T., Nyholm, T., Hytönen, V. P., Slotte, J. P. & Kulomaa, M. S. (2003) J. Biol. Chem. 278, 2479-2483). […] The absorbencies at 405 nm were measured after incubation for 45 minutes.

For data set [3] the following is noted: 2-iminobiotin surface; from Nordlund 2003; read-out: Kd detected from the equilibrium response data; cited from earlier work.
A short description of data set [4]: Microparticle analysis, BF523-biotin binding of protein-coated particles before and after 95° C. In kind it is physicochemical. The following applies: 30 minutes at 95° C., BF523-biotin added after treatment (iv). On the procedure: Before the analysis, 3.22 μm microparticles with COOH-group/0.852 nm2 (Bangs laboratories, Fishers, Ind., USA) were covalently coated with biotin-binding proteins. Microparticles (1*108 pcs) were washed twice with H20 by sequential centrifuging (5000 g; 3 min) and aspiration, and resuspended in 200 μl PB buffer (50 mM NaH2PO4-HCl, pH 3.0). A solution of biotin binding protein (50 μl, 1 mg/ml or 3 mg/ml, 50 mM Na-acetate pH 4.0) was added while vortexing. The suspension was incubated for 1 h (500 rpm; 23° C.). Particles were washed with PB and with MES buffer (50 mM, pH 5.5) and suspended in MES buffer (200 μl). […] After the last wash particles were suspended in 100 μl volume and concentration of particles was determined with Multisizer 3 Coulter Counter (Beckman Coulter, Fullerton, Calif., USA). […]
Microparticles (5*106 pcs) were suspended in 900 μl of assay buffer and aliquoted in […] PCR-tubes (i-v; 180 μl/aliquot). […] The samples were measured with ArcDia TPX PlateReader (ArcDia Ltd.) (Soini, E., Meltola, N. J., Soini, A. E., Soukka, J., Soini, J. T. & Hanninen, P. E. (2000) Biochem. Soc. Trans. 28, 70-74). […]
The fluorescence emission efficiencies of the BF523-biotin conjugate (200 nM) was determined before and after the incubation (30 min) at 95° C. […]

The nature of data set [5]: Differential scanning calorimetry of the avidin mutants. Type of data set: physicochemical. The following applies: for Tm: DSC, 100 mM Na-phosphate buffer pH 7.4. The method, then: In order to study the thermal stability of the purified avidin mutants, they were subjected to analysis by differential scanning calorimetry. A Nano II differential scanning calorimeter (Calorimetric Science Corporation, Provo, Utah) was used. […] The reference cell was filled with the same buffer that the sample proteins were dissolved in (100 mM Na-phosphate buffer pH 7.4). The thermograms were recorded as a function of temperature, between 25 and 130° C. at a temperature scan rate of 55.6° C./h. The baselines were subtracted and the transition midpoints (Tm) of the samples were calculated using proprietary software provided by the instrument manufacturer.
(In DSC, transitions show as peaks or steps in heat flow.)

The conditions of data set [6]: cited from earlier work; for ΔTm: change in Tm upon biotin addition, previously published values; for DSC Tm (+biotin) / DSC Tm(−biotin): previously published (Nordlund 2003; Gonzalez 1999).
Where [7] appears, read: + biotin, difference in Tm compared to wt avidin + biotin.
Setting [8] is: + biotin (biotin:avidin molar ratio 3:1).
[9] abbreviates: without biotin, difference in Tm compared to wt avidin.

“And” between values parts separate entries of the source, which are not always exact repeats. Identical values can stand only once. Like-named read-outs stand apart in the source and are kept apart here.

In general, Kd refers to a measure of binding affinity in units of concentration. As a reminder, the ΔTm is the shift of the melting midpoint relative to a reference. The term Tm denotes the temperature at which the thermal transition is half complete. As to “Avd-ci: Avidin mutant I117C with two intermonomeric disulphide bridges (subunits 1-3 and 2-4)”, the Kd in data set [1] is 85 nM; in data set [3], 190 nM. The “biotin-binding activity after heat treatment” value in data set [2] is “remained active, in the sense of binding biotin, longer than the wild-type avidin”. For the same substance, in data set [4], the “original signal after heat treatment of coated particles” value turned out to be 35%. Further, the ΔTm in data set [5] (setting [7]) is 6.5 °C; in data set [5] (setting [9]) it was 13.1 °C; in data set [6] it was 26.1 °C. Further, the midpoint of thermal melting (Tm) in data set [5] (setting [8]) was 124.7 ± 0.5 °C; in data set [5] (without biotin) it was 98.6 ± 0.1 °C. Further, the “DSC Tm (+biotin)” value in data set [6] is 124.7 ± 0.5 °C. Moreover, the “DSC Tm(−biotin)” value in data set [6] was 98.6 °C and 98.6 ± 0.1 °C.
Take “Streptavidin: Bacterial streptavidin (SEQ ID NO 2), literature values [reference compound]”: in data set [6], the ΔTm was 36.7 °C, the “DSC Tm (+biotin)” value was 112.2 °C and the “DSC Tm(−biotin)” value was 75.5 °C. Moreover, the ΔH of unfolding in data set [6] (previously published (Gonzalez 1999)) was 150.3 kcal/mol.
Regarding “Avd-nc: Cysteineless avidin mutant C4A, C83Y; intramonomeric disulphide bridges removed”, the figures for the dissociation constant Kd in data set [1] and in data set [3] were 190 nM and 25 nM, respectively. The thermal shift (ΔTm) was 0.3 °C in data set [5] (setting [7]) and 42.1 °C in data set [6]. In addition, the Tm in data set [5] (setting [8]) is 118.5 ± 0.1 °C; in data set [5] (without biotin), 76.4 ± 0.4 °C. Moreover, the “DSC Tm (+biotin)” value in data set [6] is 118.5 ± 0.1 °C. The “DSC Tm(−biotin)” value in data set [6] is 76.4 ± 0.4 °C.
In the case of “Avd-cci: Avidin mutant D86C, I106C with four intermonomeric disulphide bridges (1-4 and 2-3)”, the Kd in data set [1] and in data set [3] was 94 nM each time. For the same substance, the ΔTm is −0.7 °C in data set [5] (setting [7]), −11.1 °C in data set [5] (setting [9]) and 43.1 °C in data set [6]. The figures for the Tm in data set [5] (setting [8]) and in data set [5] (without biotin) were 117.5 ± 0.1 °C and 74.4 ± 0.1 °C, respectively. Besides, in data set [6], the “DSC Tm (+biotin)” value is 117.5 ± 0.1 °C. For the same substance, the “DSC Tm(−biotin)” value in data set [6] was 74.4 ± 0.1 °C.

The record behind these values is US20060281899A1, “Mutants of biotin binding protein” (priority 2002, published 2006).
